Paper doi:10.1101/2020.05.01.070730 (bioRxiv, 2020)

T1: MutS N279A (Pseudomonas aeruginosa, UniProt Q9HY08 1-855, N279A)
T1 sequence: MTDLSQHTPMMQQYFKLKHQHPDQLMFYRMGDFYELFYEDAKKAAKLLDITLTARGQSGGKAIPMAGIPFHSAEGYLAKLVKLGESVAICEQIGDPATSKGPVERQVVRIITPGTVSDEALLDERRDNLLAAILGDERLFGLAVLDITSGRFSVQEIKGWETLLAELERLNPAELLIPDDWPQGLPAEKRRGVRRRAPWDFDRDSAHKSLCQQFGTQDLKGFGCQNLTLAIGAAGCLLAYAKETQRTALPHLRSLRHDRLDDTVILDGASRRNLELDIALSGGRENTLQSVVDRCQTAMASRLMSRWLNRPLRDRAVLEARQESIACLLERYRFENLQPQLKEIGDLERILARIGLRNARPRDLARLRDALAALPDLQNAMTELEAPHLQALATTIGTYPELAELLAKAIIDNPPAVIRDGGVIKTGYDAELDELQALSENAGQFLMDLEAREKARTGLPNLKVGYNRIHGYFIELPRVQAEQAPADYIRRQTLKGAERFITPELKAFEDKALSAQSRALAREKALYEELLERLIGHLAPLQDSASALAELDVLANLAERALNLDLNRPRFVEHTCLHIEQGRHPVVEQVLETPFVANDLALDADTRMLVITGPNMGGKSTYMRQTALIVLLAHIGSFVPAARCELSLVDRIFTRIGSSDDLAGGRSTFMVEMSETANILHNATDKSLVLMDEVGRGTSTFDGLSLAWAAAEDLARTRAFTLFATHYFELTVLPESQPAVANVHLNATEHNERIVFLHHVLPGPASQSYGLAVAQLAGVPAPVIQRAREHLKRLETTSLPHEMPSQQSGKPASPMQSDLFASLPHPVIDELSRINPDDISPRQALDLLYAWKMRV

T2: MutS R272A (Pseudomonas aeruginosa, UniProt Q9HY08 1-855, R272A)
T2 sequence: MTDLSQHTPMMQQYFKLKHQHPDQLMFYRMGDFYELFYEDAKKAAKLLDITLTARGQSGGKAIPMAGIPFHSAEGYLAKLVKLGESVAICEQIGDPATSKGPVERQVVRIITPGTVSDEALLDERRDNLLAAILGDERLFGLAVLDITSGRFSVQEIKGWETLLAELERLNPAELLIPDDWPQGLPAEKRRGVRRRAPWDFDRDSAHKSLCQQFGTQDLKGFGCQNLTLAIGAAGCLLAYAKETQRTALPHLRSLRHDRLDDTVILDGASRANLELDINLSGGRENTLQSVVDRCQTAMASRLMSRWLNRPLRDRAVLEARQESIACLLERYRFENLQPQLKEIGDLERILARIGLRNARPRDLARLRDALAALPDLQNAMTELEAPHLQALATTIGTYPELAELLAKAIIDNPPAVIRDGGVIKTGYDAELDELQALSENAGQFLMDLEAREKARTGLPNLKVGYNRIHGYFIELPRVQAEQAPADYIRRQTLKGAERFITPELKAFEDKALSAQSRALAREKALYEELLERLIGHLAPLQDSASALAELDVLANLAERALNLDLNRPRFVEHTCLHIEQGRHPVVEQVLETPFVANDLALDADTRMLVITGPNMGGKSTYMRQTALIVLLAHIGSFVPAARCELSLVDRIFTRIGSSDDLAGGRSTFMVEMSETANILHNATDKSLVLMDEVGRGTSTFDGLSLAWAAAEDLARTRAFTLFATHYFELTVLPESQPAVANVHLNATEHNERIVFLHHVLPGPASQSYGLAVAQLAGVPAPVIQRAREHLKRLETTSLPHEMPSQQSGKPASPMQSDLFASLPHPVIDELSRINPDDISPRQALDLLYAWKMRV

T3: MutS (Pseudomonas aeruginosa, UniProt Q9HY08 1-855)
T3 sequence: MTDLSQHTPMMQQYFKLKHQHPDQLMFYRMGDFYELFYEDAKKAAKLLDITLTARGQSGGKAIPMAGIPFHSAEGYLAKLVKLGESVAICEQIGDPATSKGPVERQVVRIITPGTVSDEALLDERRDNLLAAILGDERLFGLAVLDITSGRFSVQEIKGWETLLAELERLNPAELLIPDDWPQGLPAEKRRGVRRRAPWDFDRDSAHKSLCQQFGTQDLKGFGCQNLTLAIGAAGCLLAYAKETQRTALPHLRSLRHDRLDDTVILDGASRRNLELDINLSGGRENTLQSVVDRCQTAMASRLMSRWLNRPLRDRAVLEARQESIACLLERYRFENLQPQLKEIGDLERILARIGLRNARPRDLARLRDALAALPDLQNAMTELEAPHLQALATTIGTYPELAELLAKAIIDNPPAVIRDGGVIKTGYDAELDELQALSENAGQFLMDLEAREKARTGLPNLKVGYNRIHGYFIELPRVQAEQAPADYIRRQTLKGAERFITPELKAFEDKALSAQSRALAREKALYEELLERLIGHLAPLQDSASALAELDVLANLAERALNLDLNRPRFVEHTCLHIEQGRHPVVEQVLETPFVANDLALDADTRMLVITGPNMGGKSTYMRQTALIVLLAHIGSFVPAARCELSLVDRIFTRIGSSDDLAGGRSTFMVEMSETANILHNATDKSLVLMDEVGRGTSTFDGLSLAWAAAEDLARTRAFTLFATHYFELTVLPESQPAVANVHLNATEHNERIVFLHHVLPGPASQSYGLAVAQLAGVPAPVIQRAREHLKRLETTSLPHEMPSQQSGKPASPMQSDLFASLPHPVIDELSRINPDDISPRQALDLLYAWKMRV


Assays:
Assay in all cases: EMSA
MutS N279A = target: T1, MutS N279A
MutS R272A = target: T2, MutS R272A
MutS = target: T3, MutS

Row | Binder | Kd (MutS N279A) | Kd (MutS R272A) | Kd (MutS)
1 | GT-pDNA (GT 8 nt from 3'-OH) (dsDNA) DNA 1: ATGTGAATCAGTATGGTTGCTATCTGC DNA 2: ATTTCCTTCAGCAGATAGTAACCATACTGATTCACAT | 63.2 ± 2.4 nM | 49.3 ± 1 nM | 20 ± 0.1 nM
2 | GT-dsDNA (GT 18 nt from 3' end) (dsDNA) DNA 1: ATGTGAATCAGTATGGTTGCTATCTGCTGAAGGAAAT DNA 2: ATTTCCTTCAGCAGATAGTAACCATACTGATTCACAT | 41.3 ± 5.2 nM | 38.2 ± 0.7 nM | 35 ± 0.9 nM
3 | dsDNA (dsDNA) DNA 1: ATGTGAATCAGTATGGTTACTATCTGCTGAAGGAAAT DNA 2: ATTTCCTTCAGCAGATAGTAACCATACTGATTCACAT | 358 ± 36.9 nM | 309 ± 20.9 nM | 331 ± 15.9 nM
4 | pDNA (AT) (dsDNA) DNA 1: ATGTGAATCAGTATGGTTACTATCTGC DNA 2: ATTTCCTTCAGCAGATAGTAACCATACTGATTCACAT | 430 ± 18 nM | 143 ± 8.6 nM | 50.7 ± 2.3 nM
